In patent US20210292384A1 (LARIX BIOSCIENCE, published 2021):

Biological target: T1, RBD domain of SARS-CoV2 spike protein (SARS-CoV-2, UniProt P0DTC2 319-541)
T1 construct: domain: RBD domain
Assay: Octet (BLI), ACE2-Fc against spike RBD

Binder | Kd [nM] | koff [s⁻¹] | kon [M⁻¹ s⁻¹]
LB697-D30E/L79W/N330Y (Fc fusion) QSTIEEQAKTFLEKFNHEAEDLFYQSSLASWNYNTNITEENVQNMNNAGDKWSAFLKEQSTWAQMYPLQEIQNLTVKLQLQALQQNGSSVLSEDKSKRLNTILNTMSTIYSTGKVCNPDNPQECLLLEPGLNEIMANSLDYNERLWAWESWRSEVGKQLRPLYEEYVVLKNEMARANHYEDYGDYWRGDYEVNGVDGYDYSRGQLIEDVEHTFEEIKPLYEHLHAYVRAKLMNAYPSYISPIGCLPAHLLGDMWGRFWTNLYSLTVPFGQKPNIDVTDAMVDQAWDAQRIFKEAEKFFVSVGLPNMTQGFWEYSMLTDPGNVQKAVCHPTAWDLGKGDFRILMCTKVTMDDFLTAHHEMGHIQYDMAYAAQPFLLRNGANEGFHEAVGEIMSLSAATPKHLKSIGLLSPDFQEDNETEINFLLKQALTIVGTLPFTYMLEKWRWMVFKGEIPKDQWMKKWWEMKREIVGVVEPVPHDETYCDPASLFHVSNDYSFIRYYTRTLYQFQFQEALCQAAKHEGPLHKCDISNSTEAGQKLFNMLRLGKSEPWTLALENVVGAKNMNVRPLLNYFEPLFTWLKDQNKNSFVGWSTDWSPYAD | 1.49 | 0.0012 | 808000
LB697-D30E/Q42K/L79W/N330Y (Fc fusion) QSTIEEQAKTFLEKFNHEAEDLFYKSSLASWNYNTNITEENVQNMNNAGDKWSAFLKEQSTWAQMYPLQEIQNLTVKLQLQALQQNGSSVLSEDKSKRLNTILNTMSTIYSTGKVCNPDNPQECLLLEPGLNEIMANSLDYNERLWAWESWRSEVGKQLRPLYEEYVVLKNEMARANHYEDYGDYWRGDYEVNGVDGYDYSRGQLIEDVEHTFEEIKPLYEHLHAYVRAKLMNAYPSYISPIGCLPAHLLGDMWGRFWTNLYSLTVPFGQKPNIDVTDAMVDQAWDAQRIFKEAEKFFVSVGLPNMTQGFWEYSMLTDPGNVQKAVCHPTAWDLGKGDFRILMCTKVTMDDFLTAHHEMGHIQYDMAYAAQPFLLRNGANEGFHEAVGEIMSLSAATPKHLKSIGLLSPDFQEDNETEINFLLKQALTIVGTLPFTYMLEKWRWMVFKGEIPKDQWMKKWWEMKREIVGVVEPVPHDETYCDPASLFHVSNDYSFIRYYTRTLYQFQFQEALCQAAKHEGPLHKCDISNSTEAGQKLFNMLRLGKSEPWTLALENVVGAKNMNVRPLLNYFEPLFTWLKDQNKNSFVGWSTDWSPYAD | 0.91 | 0.00074 | 810000
